From article PMC4514735, “The FKBP52 Cochaperone Acts in Synergy with β-Catenin to Potentiate Androgen Receptor Signaling” (PLoS ONE, 2015)

Target: T1, Gal4 DNA binding domain (DBD)-AR LBD chimeric protein (UniProt P10275 669-920)
T1 construct: also called Gal4-AR LBD; Gal4-DBD fused to the AR LBD; source: in cells (two-hybrid) and in lysate (co-IP)
T1 sequence (looked up): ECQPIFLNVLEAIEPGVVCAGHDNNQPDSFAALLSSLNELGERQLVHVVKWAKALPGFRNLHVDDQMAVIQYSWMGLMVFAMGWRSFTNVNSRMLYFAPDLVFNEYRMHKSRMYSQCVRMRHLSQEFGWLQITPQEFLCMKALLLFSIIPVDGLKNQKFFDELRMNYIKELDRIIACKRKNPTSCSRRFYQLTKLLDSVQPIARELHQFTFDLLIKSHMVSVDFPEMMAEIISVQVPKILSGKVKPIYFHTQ
Assay: two-hybrid; mammalian two-hybrid in 293T cells, Gal4-tk-luc reporter, 10 nM DHT, with FKBP52 overexpressed
Settings: partners not purified

B1: VP16-AD fused to the full-length β-catenin (natural protein, UniProt P35222 1-781, looked up)
chain: MATQADLMELDMAMEPDRKAAVSHWQQQSYLDSGIHSGATTTAPSLSGKGNPEEEDVDTSQVLYEWEQGFSQSFTQEQVADIDGQYAMTRAQRVRAAMFPETLDEGMQIPSTQFDAAHPTNVQRLAEPSQMLKHAVVNLINYQDDAELATRAIPELTKLLNDEDQVVVNKAAVMVHQLSKKEASRHAIMRSPQMVSAIVRTMQNTNDVETARCTAGTLHNLSHHREGLLAIFKSGGIPALVKMLGSPVDSVLFYAITTLHNLLLHQEGAKMAVRLAGGLQKMVALLNKTNVKFLAITTDCLQILAYGNQESKLIILASGGPQALVNIMRTYTYEKLLWTTSRVLKVLSVCSSNKPAIVEAGGMQALGLHLTDPSQRLVQNCLWTLRNLSDAATKQEGMEGLLGTLVQLLGSDDINVVTCAAGILSNLTCNNYKNKMMVCQVGGIEALVRTVLRAGDREDITEPAICALRHLTSRHQEAEMAQNAVRLHYGLPVVVKLLHPPSHWPLIKATVGLIRNLALCPANHAPLREQGAIPRLVQLLVRAHQDTQRRTSMGGTQQQFVEGVRMEEIVEGCTGALHILARDVHNRIVIRGLNTIPLFVQLLYSPIENIQRVAAGVLCELAQDKEAAEAIEAEGATAPLTELLHSRNEGVATYAAAVLFRMSEDKPQDYKKRLSVELTSSLFRTEPMAWNETADLGLDIGAQGEPLGYRQDDPSYRSFHSGGYGQDALGMDPMMEHEMGGHHPGADYPVDGLPDLGHAQDLMDGLPPGDSNQLAWFDTDL
notes: β-catenin, full length; NheI-XbaI fragment of pCI-neo-β-catenin inserted into the pACT vector (Promega); also called Vp16-β-catenin; VP16-β-catenin
  fold enhancement of the two-hybrid signal by overexpressed FKBP52: 4.5 fold
